Laboratory results: publication PMC13462943

B1: GLP methyltransferase domain (aa 1001-1266), wild type [human] / itself (parent)
chain: DRPSPVERIVSRDIARGYERIPIPCVNAVDSEPCPSNYKYVSQNCVTSPMNIDRNITHLQYCVCIDDCSSSNCMCGQLSMRCWYDKDGRLLPEFNMAEPPLIFECNHACSCWRNCRNRVVQNGLRARLQLYRTRDMGWGVRSLQDIPPGTFVCEYVGELISDSEADVREEDSYLFDLDNKDGEVYCIDARFYGNVSRFINHHCEPNLVPVRVFMAHQDLRFPRIAFFSTRLIEAGEQLGFDYGERFWDIKGKLFSCRCGSPKCRHS

Variants of: B1
Assay: native mass spectrometry (nESI-MS)
Settings: with itself; parent: 1; read off a plot

| ratio to parent | Variant |
| --- | --- |
| 0.34 | chain 1 C73Y |
